Paper doi:10.1101/2021.03.12.434960

Target: taxol-stabilised microtubules of porcine brain tubulin (pig (porcine brain)) (UniProt P02550)
Assay: single-molecule TIRF microscopy on surface-bound microtubules

Sequence of K420C (human KIF5C aa 1-416, C-terminal mScarlet-StrepII) (O60282 1-416, stated change not applied): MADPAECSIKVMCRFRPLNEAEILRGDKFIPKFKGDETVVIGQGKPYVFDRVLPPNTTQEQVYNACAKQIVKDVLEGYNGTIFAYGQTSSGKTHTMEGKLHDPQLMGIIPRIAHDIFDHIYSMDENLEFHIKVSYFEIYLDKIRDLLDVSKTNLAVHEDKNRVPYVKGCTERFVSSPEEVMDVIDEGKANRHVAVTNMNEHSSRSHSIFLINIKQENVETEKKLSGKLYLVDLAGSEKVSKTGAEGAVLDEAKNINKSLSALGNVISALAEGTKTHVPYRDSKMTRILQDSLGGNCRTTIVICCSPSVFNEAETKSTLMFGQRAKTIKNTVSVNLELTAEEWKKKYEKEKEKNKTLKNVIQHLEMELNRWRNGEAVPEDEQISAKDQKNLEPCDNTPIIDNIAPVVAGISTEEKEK
Sequence of K420A (human KIF5A aa 1-416, C-terminal mScarlet-StrepII) (Q12840 1-416, stated change not applied): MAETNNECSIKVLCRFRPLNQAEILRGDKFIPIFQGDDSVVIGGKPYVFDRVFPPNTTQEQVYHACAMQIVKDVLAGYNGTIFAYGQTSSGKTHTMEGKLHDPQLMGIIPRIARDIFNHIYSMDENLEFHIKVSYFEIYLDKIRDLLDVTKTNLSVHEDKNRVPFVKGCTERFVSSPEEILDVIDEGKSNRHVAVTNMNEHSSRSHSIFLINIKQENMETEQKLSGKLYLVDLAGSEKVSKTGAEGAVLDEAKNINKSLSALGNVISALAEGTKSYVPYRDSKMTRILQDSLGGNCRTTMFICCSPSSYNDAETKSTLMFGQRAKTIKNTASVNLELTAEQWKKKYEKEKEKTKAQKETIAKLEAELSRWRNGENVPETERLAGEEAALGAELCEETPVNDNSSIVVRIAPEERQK
Sequence of full-length human KIF5C, C-terminal mScarlet-StrepII (O60282 whole entry): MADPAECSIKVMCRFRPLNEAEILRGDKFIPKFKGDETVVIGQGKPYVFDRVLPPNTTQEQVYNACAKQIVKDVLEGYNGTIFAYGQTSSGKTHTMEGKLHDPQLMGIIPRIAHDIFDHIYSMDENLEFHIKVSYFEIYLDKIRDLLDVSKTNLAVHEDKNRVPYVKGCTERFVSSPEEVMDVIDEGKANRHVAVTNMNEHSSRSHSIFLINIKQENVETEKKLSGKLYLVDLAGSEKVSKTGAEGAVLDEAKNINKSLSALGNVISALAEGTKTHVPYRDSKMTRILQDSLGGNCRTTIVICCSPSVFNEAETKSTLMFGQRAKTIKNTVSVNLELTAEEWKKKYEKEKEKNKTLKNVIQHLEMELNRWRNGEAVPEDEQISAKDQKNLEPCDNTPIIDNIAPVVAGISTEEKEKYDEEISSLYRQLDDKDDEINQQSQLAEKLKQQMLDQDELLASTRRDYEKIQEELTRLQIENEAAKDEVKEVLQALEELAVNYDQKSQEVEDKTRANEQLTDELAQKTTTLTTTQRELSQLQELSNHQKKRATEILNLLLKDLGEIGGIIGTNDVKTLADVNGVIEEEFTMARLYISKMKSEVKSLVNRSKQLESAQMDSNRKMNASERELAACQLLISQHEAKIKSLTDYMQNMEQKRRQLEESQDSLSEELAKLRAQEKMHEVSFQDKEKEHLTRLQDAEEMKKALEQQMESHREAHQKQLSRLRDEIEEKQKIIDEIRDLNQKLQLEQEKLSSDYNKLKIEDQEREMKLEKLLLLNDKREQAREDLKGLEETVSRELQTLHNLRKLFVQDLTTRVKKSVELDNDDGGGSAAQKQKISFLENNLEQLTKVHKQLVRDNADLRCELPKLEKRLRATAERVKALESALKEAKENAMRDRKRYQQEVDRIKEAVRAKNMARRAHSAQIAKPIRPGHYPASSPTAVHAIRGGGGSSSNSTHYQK
Sequence of full-length human KIF5A, C-terminal mScarlet-StrepII (Q12840 whole entry): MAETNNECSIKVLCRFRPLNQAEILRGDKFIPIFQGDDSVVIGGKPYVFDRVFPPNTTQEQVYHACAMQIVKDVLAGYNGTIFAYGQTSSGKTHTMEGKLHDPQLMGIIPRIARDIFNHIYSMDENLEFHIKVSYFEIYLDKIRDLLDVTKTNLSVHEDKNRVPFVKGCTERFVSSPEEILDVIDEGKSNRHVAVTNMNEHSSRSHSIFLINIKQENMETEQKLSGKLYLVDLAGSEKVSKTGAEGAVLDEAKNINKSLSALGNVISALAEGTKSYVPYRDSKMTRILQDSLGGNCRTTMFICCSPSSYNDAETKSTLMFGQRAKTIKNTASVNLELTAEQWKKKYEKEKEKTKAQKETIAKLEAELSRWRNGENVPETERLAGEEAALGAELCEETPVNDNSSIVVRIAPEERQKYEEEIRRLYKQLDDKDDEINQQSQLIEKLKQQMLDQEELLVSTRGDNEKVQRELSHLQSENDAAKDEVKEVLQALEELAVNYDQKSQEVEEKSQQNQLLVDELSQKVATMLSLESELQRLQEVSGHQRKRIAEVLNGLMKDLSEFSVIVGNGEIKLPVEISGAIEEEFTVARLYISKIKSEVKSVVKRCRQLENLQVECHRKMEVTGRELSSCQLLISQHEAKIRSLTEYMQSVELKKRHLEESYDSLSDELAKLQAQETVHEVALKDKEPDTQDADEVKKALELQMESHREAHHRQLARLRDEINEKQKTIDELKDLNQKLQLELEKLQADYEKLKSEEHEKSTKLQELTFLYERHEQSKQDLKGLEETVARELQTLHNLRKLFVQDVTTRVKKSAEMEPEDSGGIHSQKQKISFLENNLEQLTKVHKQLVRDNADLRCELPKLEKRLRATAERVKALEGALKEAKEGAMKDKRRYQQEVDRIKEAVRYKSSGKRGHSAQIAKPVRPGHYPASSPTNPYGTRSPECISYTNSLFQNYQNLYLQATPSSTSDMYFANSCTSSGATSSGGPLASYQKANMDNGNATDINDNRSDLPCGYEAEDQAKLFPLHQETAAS

landing rate | Substance
162 /μm/s/μM | K420A (human KIF5A aa 1-416, C-terminal mScarlet-StrepII) (from UniProt Q12840 1-416) (domain or fragment)
146 /μm/s/μM | K420B (human KIF5B aa 1-420, C-terminal mScarlet-StrepII) (from UniProt P33176 1-420) (domain or fragment)
147 /μm/s/μM | K420C (human KIF5C aa 1-416, C-terminal mScarlet-StrepII) (from UniProt O60282 1-416) (domain or fragment)
0.1 /μm/s/μM | KIF5A-KLC1 tetramer (from UniProt Q12840;Q07866) (complex)
8.1 /μm/s/μM | KIF5B-E178A, C-terminal mScarlet-StrepII (from UniProt P33176 1-963) (natural protein)
4.4 /μm/s/μM | KIF5B-H129A, C-terminal mScarlet-StrepII (from UniProt P33176 1-963) (natural protein)
4.1 /μm/s/μM | KIF5B-IAK/AAA, C-terminal mScarlet-StrepII (from UniProt P33176 1-963) (natural protein)
0.06 /μm/s/μM | KIF5B-KLC1 tetramer (from UniProt P33176;Q07866) (complex)
3.6 /μm/s/μM | KIF5B-Δhinge (Δ505-610), C-terminal mScarlet-StrepII (from UniProt P33176 1-963) (natural protein)
0.06 /μm/s/μM | KIF5C-KLC1 tetramer (from UniProt O60282;Q07866) (complex)
0.69 /μm/s/μM | full-length human KIF5A, C-terminal mScarlet-StrepII (from UniProt Q12840 1-1032) (natural protein)
0.08 /μm/s/μM | full-length human KIF5B, C-terminal mScarlet-StrepII (from UniProt P33176 1-963) (natural protein)
0.1 /μm/s/μM | full-length human KIF5C, C-terminal mScarlet-StrepII (from UniProt O60282 1-957) (natural protein)
